From paper PMC7585203 (2020)
Where a chain is given by its changes, count along the chain named. Where no end group is shown, it is not given here. [ ]: non-standard residue; d: D form. The star is where a group is joined. 5FAM = O=C1OC2(c3ccc(O)cc3Oc3cc(O)ccc32)c2ccc(C(=O)*)cc21; Me2 = dimethyl on lysine side chain; PEG = not defined here

Key:
Experiment in all cases: FP
[1] = target: T1, GST-tagged UHRF1 TTD–PHD S298E ( (printed UniProt entry is …, UniProt Q96T88 125-364, S298E))
T1 sequence: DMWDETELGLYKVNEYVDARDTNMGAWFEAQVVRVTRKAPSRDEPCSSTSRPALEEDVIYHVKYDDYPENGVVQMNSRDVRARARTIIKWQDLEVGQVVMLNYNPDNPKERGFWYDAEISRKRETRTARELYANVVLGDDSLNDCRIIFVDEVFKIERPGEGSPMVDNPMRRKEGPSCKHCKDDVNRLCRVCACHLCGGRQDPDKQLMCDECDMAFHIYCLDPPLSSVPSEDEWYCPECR

[2] = target: T2, GST-tagged UHRF1 TTD-L2 (a.a. 125–301) ( (printed UniProt entry is …, UniProt Q96T88 125-301))
T2 chain: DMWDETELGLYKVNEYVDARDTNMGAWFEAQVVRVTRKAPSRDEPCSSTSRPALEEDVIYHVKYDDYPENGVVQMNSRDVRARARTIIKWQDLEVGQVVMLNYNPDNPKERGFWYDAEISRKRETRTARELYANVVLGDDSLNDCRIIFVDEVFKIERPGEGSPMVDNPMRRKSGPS

[3] = target: T3, GST-tagged UHRF1 TTD–PHD (a.a. 125–364) ( (printed UniProt entry is …, UniProt Q96T88 125-364))
T3 chain: T1 sequence with E174S

[4] = target: T4, GST-tagged UHRF1 TTD–PHD R295A/R296A ( (printed UniProt entry is …, UniProt Q96T88 125-364, R295A | R296A))
T4 sequence: T1 sequence with R171A, R172A, E174S

[5] = target: T5, MPP8 chromo (Homo sapiens)
T5 chain: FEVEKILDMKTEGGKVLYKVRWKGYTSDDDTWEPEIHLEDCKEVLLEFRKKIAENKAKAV

[6] = target: T6, GST-tagged chromodomain Y-like protein isoform 2 (CDYL1b) chromodomain ( (printed UniProt entry is …))
T6 chain: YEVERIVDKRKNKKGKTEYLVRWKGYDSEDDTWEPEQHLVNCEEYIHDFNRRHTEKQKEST

[7] = target: T7, GST-tagged UHRF1 tandem Tudor domain (TTD, a.a. 125–285) ( (printed UniProt entry is …, UniProt Q96T88 125-285))
T7 chain: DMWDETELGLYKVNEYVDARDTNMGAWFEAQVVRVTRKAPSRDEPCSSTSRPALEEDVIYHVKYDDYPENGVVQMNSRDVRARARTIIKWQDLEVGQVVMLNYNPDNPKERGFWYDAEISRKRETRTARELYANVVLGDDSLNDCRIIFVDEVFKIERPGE

[8] = target: T8, UHRF1 full-length (a.a. 1–793), MBP fusion ( (printed UniProt entry is …, UniProt Q96T88 1-793))
T8 chain: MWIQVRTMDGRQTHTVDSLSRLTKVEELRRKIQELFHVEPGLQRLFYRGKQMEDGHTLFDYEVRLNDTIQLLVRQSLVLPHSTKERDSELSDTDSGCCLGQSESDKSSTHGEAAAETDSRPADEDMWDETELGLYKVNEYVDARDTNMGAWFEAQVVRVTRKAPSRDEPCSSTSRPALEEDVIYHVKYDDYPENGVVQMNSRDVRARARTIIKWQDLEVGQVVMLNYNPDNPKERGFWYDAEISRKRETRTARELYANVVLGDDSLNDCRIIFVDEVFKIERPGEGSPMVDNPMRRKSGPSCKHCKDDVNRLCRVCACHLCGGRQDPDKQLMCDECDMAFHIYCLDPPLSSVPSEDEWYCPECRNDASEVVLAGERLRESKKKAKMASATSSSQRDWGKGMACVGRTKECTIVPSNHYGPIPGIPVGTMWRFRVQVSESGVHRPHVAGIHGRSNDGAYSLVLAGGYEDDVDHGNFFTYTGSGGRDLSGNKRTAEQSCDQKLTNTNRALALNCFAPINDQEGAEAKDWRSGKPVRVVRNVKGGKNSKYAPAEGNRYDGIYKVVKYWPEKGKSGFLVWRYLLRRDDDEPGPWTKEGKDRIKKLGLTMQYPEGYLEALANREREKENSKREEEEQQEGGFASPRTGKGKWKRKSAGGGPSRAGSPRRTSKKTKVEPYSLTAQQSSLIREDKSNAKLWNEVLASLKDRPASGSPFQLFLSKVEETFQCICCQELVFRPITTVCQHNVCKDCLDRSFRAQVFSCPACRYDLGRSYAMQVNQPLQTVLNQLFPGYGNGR

Binder | Kd [1] | Kd [2] | Kd [3] | Kd [4] | Kd [5] | Kd [6] | Kd [7] | Kd [8]
{FAM}-IPKRRTARK(Me2)QLPK (not fully specified (C-terminus); printed as FAM-LIG1(118–130)K126me2 peptide) [FAM-LIG1(118–130)K126me2 peptide] | 10 nM | 10 nM | 10 nM | 8 nM | 32 µM | 6.5 µM | 40 nM | 
5FAM-IPKRRTARK(Me2)QLPK[PEG][dK][dK][dK][dR][dK][dV]-NH2 (reading uncertain) [FAM-LIG1(118–130)K126me2-PEG-CPP] |  |  |  |  |  |  |  | 8 nM
